Where no end group is shown, it is not given here.

The target of this assay is T1, refolded processed β-secretase (BACE) (human, UniProt P56817 43-454, limits assumed).
T1 construct: The processed preparation is an equimolar mixture of two species, LRLPRE; It is C-terminally truncated and lacks the transmembrane domain; It is not glycosylated; also called mamapsin 2
The experiment in a line: X-ray structure coordinates of the complex.

T1 sequence (P56817 43-454 limits assumed): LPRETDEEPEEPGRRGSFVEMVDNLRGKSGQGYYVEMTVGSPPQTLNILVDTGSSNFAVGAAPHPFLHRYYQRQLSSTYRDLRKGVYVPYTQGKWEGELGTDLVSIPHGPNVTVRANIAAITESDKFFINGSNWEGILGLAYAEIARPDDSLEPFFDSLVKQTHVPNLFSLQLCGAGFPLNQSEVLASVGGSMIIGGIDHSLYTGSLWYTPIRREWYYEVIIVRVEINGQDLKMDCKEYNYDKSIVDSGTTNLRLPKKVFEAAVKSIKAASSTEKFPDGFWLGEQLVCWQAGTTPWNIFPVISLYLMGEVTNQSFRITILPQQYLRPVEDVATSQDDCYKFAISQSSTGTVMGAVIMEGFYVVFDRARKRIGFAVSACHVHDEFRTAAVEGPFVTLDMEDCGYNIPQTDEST

B1: OM-99-2 (peptide)
peptide: EVNLAAEF
modifications: also: L4-A5 as hydroxyethylene isostere (2R,4S,5S)-5-amino-4-hydroxy-2,7-dimethyl-octanoyl
notes: also called Bachem catalog # H-5108
As for B1, the binding result is recorded as “binds”.

The values above are taken from patent publication US7166454 (dated 2007).
